Laboratory results: the Immune Epitope Database (IEDB)

Tests used:
Experiment in all cases: IEDB peptide-MHC binding, purified MHC/competitive/radioactivity; filed as Kd, often an IC50 or EC50 that approximates it; ≥ and ≤ were set here for values at or beyond the usual limits of such assays
HLA-A*11:01 = target: HLA-A*11:01
HLA-A*33:01 = target: HLA-A*33:01
HLA-A*31:01 = target: HLA-A*31:01
HLA-A*03:01 = target: HLA-A*03:01
HLA-A*68:01 = target: HLA-A*68:01
[1] = source organism: Vaccinia virus WR
[2] = source organism: Dengue virus 1 Brazil/97-11/1997
[3] = source organism: SARS coronavirus Tor2
[4] = source organism: Dengue virus 3 Martinique/1243/1999
[5] = source organism: Dengue virus 2 Jamaica/1409/1983
[6] = source organism: Mammarenavirus juninense
[7] = source organism: Lymphocytic choriomeningitis virus (strain Armstrong)
[8] = source organism: Dengue virus 4 Philippines/H241/1956

## SIKDVIHDY
HLA-A*11:01; [1]
  Kd: 2810 nM
HLA-A*33:01; [1]
  Kd: 19400 nM
HLA-A*31:01; [1]
  Kd: 2260 nM
HLA-A*03:01; [1]
  Kd: 2830 nM
HLA-A*68:01; [1]
  Kd: 3550 nM

## YMTSMKRFK
HLA-A*03:01; [2]
  Kd: 897 nM

## ATSRTLSYYK
HLA-A*11:01; [3]
  Kd: 3.16 nM
HLA-A*33:01; [3]
  Kd: 6230 nM
HLA-A*31:01; [3]
  Kd: 14.9 nM
HLA-A*03:01; [3]
  Kd: 3.32 nM
HLA-A*68:01; [3]
  Kd: 15.3 nM

## LIGANYLGK
HLA-A*33:01; [3]
  Kd: ≥ 77700 nM
HLA-A*31:01; [3]
  Kd: 8930 nM
HLA-A*68:01; [3]
  Kd: 10900 nM

## AAAYFVGYLK
HLA-A*11:01; [3]
  Kd: 0.439 nM
HLA-A*33:01; [3]
  Kd: 5610 nM
HLA-A*31:01; [3]
  Kd: 282 nM
HLA-A*03:01; [3]
  Kd: 9.39 nM
HLA-A*68:01; [3]
  Kd: 1.08 nM

## SAQCFKMFYK
HLA-A*11:01; [3]
  Kd: 4.59 nM
HLA-A*33:01; [3]
  Kd: 398 nM
HLA-A*31:01; [3]
  Kd: 26.8 nM
HLA-A*03:01; [3]
  Kd: 18.4 nM
HLA-A*68:01; [3]
  Kd: 30.5 nM

## NMLKRVRNR
HLA-A*33:01; [4]
  Kd: 109 nM

## FLMSGKGIGK
HLA-A*11:01; [5]
  Kd: 99.8 nM
HLA-A*03:01; [5]
  Kd: 42.6 nM

## LGMMVLKIVR
HLA-A*33:01; [5]
  Kd: 1910 nM

## ATMLDVDLR
HLA-A*11:01; source organism: Dengue virus 1 Singapore/S275/1990
  Kd: 41.5 nM

## MVGLFSNNPH
HLA-A*11:01; [6]
  Kd: 5960 nM
HLA-A*33:01; [6]
  Kd: 398 nM
HLA-A*31:01; [6]
  Kd: 106 nM
HLA-A*03:01; [6]
  Kd: ≥ 30200 nM
HLA-A*68:01; [6]
  Kd: 50 nM

## KSKSFNHVLK
HLA-A*11:01; [3]
  Kd: 21.6 nM
HLA-A*33:01; [3]
  Kd: ≥ 70000 nM
HLA-A*31:01; [3]
  Kd: 6.54 nM
HLA-A*03:01; [3]
  Kd: 1.73 nM
HLA-A*68:01; [3]
  Kd: 3660 nM

## VTLFFLSGK
HLA-A*11:01; [2]
  Kd: 12.4 nM
HLA-A*03:01; [2]
  Kd: 3.82 nM

## HIASKINNNR
HLA-A*11:01; [1]
  Kd: 4030 nM
HLA-A*33:01; [1]
  Kd: 5950 nM
HLA-A*31:01; [1]
  Kd: 959 nM
HLA-A*03:01; [1]
  Kd: 1960 nM
HLA-A*68:01; [1]
  Kd: 18.8 nM

## ELYDTSPTK
HLA-A*11:01; [1]
  Kd: 90.2 nM
HLA-A*33:01; [1]
  Kd: ≥ 43500 nM
HLA-A*31:01; [1]
  Kd: ≥ 77900 nM
HLA-A*03:01; [1]
  Kd: 10.5 nM
HLA-A*68:01; [1]
  Kd: 4.11 nM

## MVLLIPEPEK
HLA-A*11:01; [4]
  Kd: 115 nM

## RVYANLGER
HLA-A*11:01; [3]
  Kd: 126 nM
HLA-A*33:01; [3]
  Kd: ≥ 45400 nM
HLA-A*31:01; [3]
  Kd: 6.3 nM
HLA-A*03:01; [3]
  Kd: 18.6 nM
HLA-A*68:01; [3]
  Kd: 601 nM

## KSDNIINIGY
HLA-A*11:01; [1]
  Kd: 142 nM
HLA-A*33:01; [1]
  Kd: ≥ 48600 nM
HLA-A*31:01; [1]
  Kd: 3870 nM
HLA-A*03:01; [1]
  Kd: 106 nM
HLA-A*68:01; [1]
  Kd: 2930 nM

## LLVWHTWQK
HLA-A*03:01; [4]
  Kd: 59 nM

## HIVCSKTVK
HLA-A*11:01; [1]
  Kd: 1590 nM
HLA-A*33:01; [1]
  Kd: ≥ 32800 nM
HLA-A*31:01; [1]
  Kd: 623 nM
HLA-A*03:01; [1]
  Kd: 291 nM
HLA-A*68:01; [1]
  Kd: 118 nM

## TSMMVILPDK
HLA-A*11:01; [1]
  Kd: 1.8 nM
HLA-A*33:01; [1]
  Kd: ≥ 23000 nM
HLA-A*31:01; [1]
  Kd: 455 nM
HLA-A*03:01; [1]
  Kd: 141 nM
HLA-A*68:01; [1]
  Kd: 27 nM

## TFTNDSIISH
HLA-A*33:01; [7]
  Kd: 8720 nM
HLA-A*31:01; [7]
  Kd: ≥ 64700 nM
HLA-A*03:01; [7]
  Kd: ≥ 47000 nM
HLA-A*68:01; [7]
  Kd: 6850 nM

## TIAGGVCYY
HLA-A*11:01; [1]
  Kd: 94.7 nM
HLA-A*33:01; [1]
  Kd: ≥ 51000 nM
HLA-A*31:01; [1]
  Kd: 16200 nM
HLA-A*03:01; [1]
  Kd: 110 nM
HLA-A*68:01; [1]
  Kd: 605 nM

## IINDKGKQY
HLA-A*11:01; [1]
  Kd: 8380 nM
HLA-A*33:01; [1]
  Kd: ≥ 77700 nM
HLA-A*31:01; [1]
  Kd: ≥ 77900 nM
HLA-A*03:01; [1]
  Kd: 1940 nM
HLA-A*68:01; [1]
  Kd: ≥ 77700 nM

## AIDAYPLTK
HLA-A*11:01; [3]
  Kd: 11.6 nM
HLA-A*33:01; [3]
  Kd: ≥ 44600 nM
HLA-A*31:01; [3]
  Kd: 8890 nM
HLA-A*68:01; [3]
  Kd: 6970 nM

## NKQYIHCFRK
HLA-A*11:01; [6]
  Kd: 652 nM
HLA-A*33:01; [6]
  Kd: 17500 nM
HLA-A*31:01; [6]
  Kd: 128 nM
HLA-A*03:01; [6]
  Kd: 973 nM
HLA-A*68:01; [6]
  Kd: 1500 nM

## AQGLVASIK
HLA-A*11:01; [3]
  Kd: 209 nM
HLA-A*33:01; [3]
  Kd: ≥ 31600 nM
HLA-A*31:01; [3]
  Kd: 9890 nM
HLA-A*03:01; [3]
  Kd: 654 nM
HLA-A*68:01; [3]
  Kd: ≥ 32600 nM

## ATRLENIMWK
HLA-A*11:01; [2]
  Kd: 6.34 nM
HLA-A*03:01; [2]
  Kd: 42.3 nM

## PLFDFVNEKY
HLA-A*11:01; [1]
  Kd: ≥ 69800 nM
HLA-A*33:01; [1]
  Kd: ≥ 70000 nM
HLA-A*31:01; [1]
  Kd: ≥ 26800 nM
HLA-A*03:01; [1]
  Kd: ≥ 70100 nM
HLA-A*68:01; [1]
  Kd: ≥ 70200 nM

## EALEYLSELK
HLA-A*11:01; [1]
  Kd: 225 nM
HLA-A*33:01; [1]
  Kd: 5620 nM
HLA-A*31:01; [1]
  Kd: 17900 nM
HLA-A*03:01; [1]
  Kd: 461 nM
HLA-A*68:01; [1]
  Kd: 105 nM

## YMWQVKTQR
HLA-A*33:01; [8]
  Kd: 1.3 nM
HLA-A*31:01; [8]
  Kd: 1.41 nM

## ITANPIVTDK
HLA-A*11:01; [2]
  Kd: 83 nM
HLA-A*68:01; [2]
  Kd: 40.5 nM

## STCFKLMLK
HLA-A*11:01; [3]
  Kd: 0.553 nM
HLA-A*33:01; [3]
  Kd: 1450 nM
HLA-A*31:01; [3]
  Kd: 26.5 nM
HLA-A*03:01; [3]
  Kd: 0.808 nM
HLA-A*68:01; [3]
  Kd: 1.65 nM

## IINFTISMRY
HLA-A*11:01; [1]
  Kd: 1.71 nM
HLA-A*33:01; [1]
  Kd: 5210 nM
HLA-A*31:01; [1]
  Kd: 1420 nM
HLA-A*03:01; [1]
  Kd: 35.3 nM
HLA-A*68:01; [1]
  Kd: 690 nM
